The record followed here is paper PMC3473065.

Experiment [1] addresses microtubules. In words: co-sedimentation; microtubule pelleting assay: 0.7 µM motor with 2 µM microtubules and 0.1 mM Mg·ADP in HEM100 (10 mM HEPES pH 7.2, 1 mM EGTA, 1 mM MgCl2, 100 mM NaCl); centrifugation, SDS-PAGE; corrected for motor that pelleted without microtubules.
Experiment [2] deals with microtubules.

B1: wild-type Ncd dimeric motor protein (MGSM-H293-K700) (domain or fragment)
chain: MGSMHAALSTEVVHLRQRTEELLRCNEQQAAELETCKEQLFQSNMERKELHNTVMDLRGNIRVFCRIRPPLESEENRMCCTWTYHDESTVELQSIDAQAKSKMGQQIFSFDQVFHPLSSQSDIFEMVSPLIQSALDGYNICIFAYGQTGSGKTYTMDGVPESVGVIPRTVDLLFDSIRGYRNLGWEYEIKATFLEIYNEVLYDLLSNEQKDMEIRMAKNNKNDIYVSNITEETVLDPNHLRHLMHTAKMNRATASTAGNERSSRSHAVTKLELIGRHAEKQEISVGSINLVDLAGSESPKTSTRMTETKNINRSLSELTNVILALLQKQDHIPYRNSKLTHLLMPSLGGNSKTLMFINVSPFQDCFQESVKSLRFAASVNSCKMTKAKRNRYLNNSVANSSTQSNNSGSFDK
B1: the MT binding with ADP (fraction bound) (fraction bound) in the experiment with microtubules [1] stood at 0.2. The K (M,MT) of steady-state ATPase, 0.5 µM motor + 0-25 µM microtubules with microtubules [2] was 17 µM.

B2: NcdY485K dimeric motor protein (MGSM-H293-K700) (domain or fragment)
chain: MGSMHAALSTEVVHLRQRTEELLRCNEQQAAELETCKEQLFQSNMERKELHNTVMDLRGNIRVFCRIRPPLESEENRMCCTWTYHDESTVELQSIDAQAKSKMGQQIFSFDQVFHPLSSQSDIFEMVSPLIQSALDGYNICIFAYGQTGSGKTYTMDGVPESVGVIPRTVDLLFDSIRGYRNLGWEYEIKATFLEIKNEVLYDLLSNEQKDMEIRMAKNNKNDIYVSNITEETVLDPNHLRHLMHTAKMNRATASTAGNERSSRSHAVTKLELIGRHAEKQEISVGSINLVDLAGSESPKTSTRMTETKNINRSLSELTNVILALLQKQDHIPYRNSKLTHLLMPSLGGNSKTLMFINVSPFQDCFQESVKSLRFAASVNSCKMTKAKRNRYLNNSVANSSTQSNNSGSFDK
As to B2, the MT binding with ADP (fraction bound) (fraction bound) with microtubules [1] is 0.6. The K (M,MT) of steady-state ATPase, 0.5 µM motor + 0-25 µM microtubules with microtubules [2] was determined as 1.6 µM.

B3: NcdY485N dimeric motor protein (MGSM-H293-K700) (domain or fragment)
chain: MGSMHAALSTEVVHLRQRTEELLRCNEQQAAELETCKEQLFQSNMERKELHNTVMDLRGNIRVFCRIRPPLESEENRMCCTWTYHDESTVELQSIDAQAKSKMGQQIFSFDQVFHPLSSQSDIFEMVSPLIQSALDGYNICIFAYGQTGSGKTYTMDGVPESVGVIPRTVDLLFDSIRGYRNLGWEYEIKATFLEINNEVLYDLLSNEQKDMEIRMAKNNKNDIYVSNITEETVLDPNHLRHLMHTAKMNRATASTAGNERSSRSHAVTKLELIGRHAEKQEISVGSINLVDLAGSESPKTSTRMTETKNINRSLSELTNVILALLQKQDHIPYRNSKLTHLLMPSLGGNSKTLMFINVSPFQDCFQESVKSLRFAASVNSCKMTKAKRNRYLNNSVANSSTQSNNSGSFDK
The molecule B3 showed an MT binding with ADP (fraction bound) (fraction bound) with microtubules [1] of 0.37.

B4: NcdY485E dimeric motor protein (MGSM-H293-K700) (domain or fragment)
chain: MGSMHAALSTEVVHLRQRTEELLRCNEQQAAELETCKEQLFQSNMERKELHNTVMDLRGNIRVFCRIRPPLESEENRMCCTWTYHDESTVELQSIDAQAKSKMGQQIFSFDQVFHPLSSQSDIFEMVSPLIQSALDGYNICIFAYGQTGSGKTYTMDGVPESVGVIPRTVDLLFDSIRGYRNLGWEYEIKATFLEIENEVLYDLLSNEQKDMEIRMAKNNKNDIYVSNITEETVLDPNHLRHLMHTAKMNRATASTAGNERSSRSHAVTKLELIGRHAEKQEISVGSINLVDLAGSESPKTSTRMTETKNINRSLSELTNVILALLQKQDHIPYRNSKLTHLLMPSLGGNSKTLMFINVSPFQDCFQESVKSLRFAASVNSCKMTKAKRNRYLNNSVANSSTQSNNSGSFDK
Consider B4, for which the MT binding with ADP (fraction bound) (fraction bound) in the experiment with microtubules [1] was 0.29.
